From the supplement of paper PMC9732359
± gives the uncertainty stated by the source.

Test: protein stability index of a GFP-peptide fusion (yeast GPS) (PSI 1-4); higher = more stable; sorted into four equal gates, so the index is relative within each strain
Method in brief: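 Plasmids isolated from each sorting gate were PCR-amplified and Illumina-sequenced, and barcodes assigned the reads to strains. The gates, four of equal size, were set by GFP/Cherry fluorescence ratio on mid-log cultures in leucine-free medium. These cultures were yeast carrying a pooled library of tiled 17-residue yeast protein peptides fused downstream of GFP on a plasmid that also expresses Cherry. The protein stability index is the sum of every gate's read frequency times its gate number.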

| Sequence | protein stability index (doa10∆) | protein stability index (pdr5∆) | protein stability index (san1∆) | protein stability index (ubr1∆) |
| --- | --- | --- | --- | --- |
| RSCVSNSNENGTLERIK [RPN4] | 2.98 ± 0.07 | 3.07 ± 0.077 | 2.54 ± 0.065 | 2.95 ± 0.057 |
| IGNLITRQFEGRSNEIV [PRP8] | 3.05 ± 0.075 | 3.29 ± 0.087 | 3 ± 0.058 | 2.7 ± 0.074 |
| TKQIQSVRIDGRKVLQK [SIR4] | 2.32 ± 0.06 | 2.48 ± 0.055 | 2.03 ± 0.069 | 2.02 ± 0.04 |
| SIAAERYDYSDEVGRRS [YCG1] | 3 ± 0.075 | 2.99 ± 0.11 | 2.65 ± 0.14 | 3.04 ± 0.063 |
| ARGMTSKPAGFMKKLRA [RPS15] | 3.15 ± 0.16 |  | 2.64 ± 0.26 | 3.6 ± 0.14 |
| EVDKSKLITTYISLLKL [YDL116W/NUP84] | 2.66 ± 0.08 | 1.45 ± 0.06 | 1.27 ± 0.13 | 1.43 ± 0.046 |
| DIEFINSLLTIVWRFIS [RPC34] |  | 2.91 ± 0.23 | 2.51 ± 0.21 | 2.12 ± 0.14 |
| TLKKNNVAVDIINFGEI [RPN10] | 2.97 ± 0.081 | 3.01 ± 0.092 | 3.02 ± 0.1 | 2.74 ± 0.063 |
| NLLQISAAELERLDKDK [SNF5] | 2.5 ± 0.12 | 2.89 ± 0.13 | 2.91 ± 0.18 |  |
| DDKYGRKFALEKLYIFY [SRP72] | 2.71 ± 0.076 | 2.82 ± 0.081 | 2.4 ± 0.061 | 2.4 ± 0.055 |
| VLITDHIEKLENEFVVL [CDC53] | 3.05 ± 0.061 | 2.61 ± 0.055 | 2.1 ± 0.087 | 2.58 ± 0.054 |
| TGISQKSMSILNSFVND [HTB1] | 2.96 ± 0.06 | 2.94 ± 0.074 | 2.6 ± 0.075 | 2.67 ± 0.087 |
| ECQVIAAEGLCKLFLAD [YCG1] | 3.29 ± 0.066 | 3.29 ± 0.067 | 3.11 ± 0.047 | 3.25 ± 0.036 |
| VSDHLDAIYRELTKNPN [SMC1] | 2.87 ± 0.23 |  |  |  |
| PSTTDDENGDKNDNGGK [SWI3] | 3.09 ± 0.089 | 3.3 ± 0.069 | 3.23 ± 0.05 | 3.25 ± 0.079 |
| GRVYRPLFIVEDDESLG [RPB2] | 1.71 ± 0.063 | 1.8 ± 0.087 | 1.59 ± 0.1 | 1.69 ± 0.034 |
| ANDEEAYIKLLDQTKDT [SNF2] | 2.98 ± 0.088 | 3.21 ± 0.072 | 3.4 ± 0.069 | 3 ± 0.1 |
| ENESTNYQYKIQELRKL [MED7] | 2.25 ± 0.054 | 2.61 ± 0.074 | 2.36 ± 0.074 | 2.69 ± 0.06 |
| AHRGIRHFWGLRVRGQH [RPS18A] | 2.82 ± 0.1 | 2.73 ± 0.083 | 2.44 ± 0.081 | 2.66 ± 0.053 |
| FGNSSPQLTFTHVANFM [YML103C/NUP188] | 2.97 ± 0.096 | 3.03 ± 0.08 | 3.04 ± 0.054 | 2.92 ± 0.052 |
| AENQTGESTVESEKLVT [RPC82] | 3.17 ± 0.089 | 3.29 ± 0.11 | 3.15 ± 0.11 | 3.45 ± 0.29 |
| MNEMCKKINAKEKLIGW [RPN8] | 2.86 ± 0.043 | 3.13 ± 0.056 | 3.03 ± 0.046 | 3.08 ± 0.031 |
| KLLKSLKNTKYFQQTTI [PRP8] | 2.12 ± 0.076 | 2.7 ± 0.085 | 2.34 ± 0.068 | 2.59 ± 0.064 |
| VGKFLGYVSSLVEPSKV [FAS1] | 1.71 ± 0.064 | 2.14 ± 0.072 | 1.69 ± 0.12 | 1.89 ± 0.052 |
| AALKKTRKAARPQKLRA [RPL6A] | 2.96 ± 0.071 | 3.09 ± 0.05 | 2.97 ± 0.043 | 3.16 ± 0.055 |
| LINGHRAPQQSVLQLFQ [SMC2] | 3 ± 0.095 | 2.48 ± 0.069 | 2.5 ± 0.063 | 2.42 ± 0.051 |
| PKNYSLHGLRSFYDAIF [YJL039C/NUP192] | 2.53 ± 0.042 | 2.61 ± 0.041 | 2.37 ± 0.043 | 2.4 ± 0.041 |
